The target of assay [1] is T1, human CX3CR1 (human, UniProt P49238 1-355).
T1 sequence: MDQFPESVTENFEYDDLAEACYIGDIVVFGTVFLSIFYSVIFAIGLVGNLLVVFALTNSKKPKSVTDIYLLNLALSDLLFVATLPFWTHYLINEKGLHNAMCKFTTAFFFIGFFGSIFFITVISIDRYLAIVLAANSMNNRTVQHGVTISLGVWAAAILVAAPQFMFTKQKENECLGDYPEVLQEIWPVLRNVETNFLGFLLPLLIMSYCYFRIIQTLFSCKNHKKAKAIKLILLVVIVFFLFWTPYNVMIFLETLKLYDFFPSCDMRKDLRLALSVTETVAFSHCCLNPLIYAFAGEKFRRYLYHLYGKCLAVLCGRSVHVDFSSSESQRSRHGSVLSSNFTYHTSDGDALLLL
In words: cell-based or functional assay.

A further assay concerns the target T2, mouse CX3CR1 (mouse, UniProt Q9Z0D9 1-354).
T2 sequence (looked up): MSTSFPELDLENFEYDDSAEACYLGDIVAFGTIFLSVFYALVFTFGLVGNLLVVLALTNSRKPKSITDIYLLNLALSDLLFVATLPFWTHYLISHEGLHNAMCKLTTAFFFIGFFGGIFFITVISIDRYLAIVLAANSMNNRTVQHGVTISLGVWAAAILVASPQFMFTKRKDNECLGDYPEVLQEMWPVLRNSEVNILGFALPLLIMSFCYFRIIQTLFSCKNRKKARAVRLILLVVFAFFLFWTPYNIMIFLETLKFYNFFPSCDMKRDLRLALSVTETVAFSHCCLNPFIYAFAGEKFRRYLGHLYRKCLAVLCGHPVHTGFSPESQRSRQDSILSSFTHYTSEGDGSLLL
In words: cell-based or functional assay.

Assay [2] deals with T1, human CX3CR1. As to the kind of experiment: flow cytometry, AF-647 labelled soluble CX3CL1 on transiently transfected HEK293T cells, human CX3CR1 WT. In general terms: A flow cytometer gives signals particle by particle.
The target of another assay is T3, human CX3CR1 T280M (human, UniProt P49238 1-355).
T3 construct: Transiently transfected in HEK293T cells (pcDNA3.1); also called huCX3CR1 variant T280M (Rs3732378)
T3 sequence: T1 sequence with T280M
As to the kind of experiment: flow cytometry, AF-647 labelled soluble CX3CL1 on transiently transfected HEK293T cells, human CX3CR1 T280M.

For another assay, the target named is T4, human CX3CR1 V249I (human, UniProt P49238 1-355).
T4 construct: Transiently transfected in HEK293T cells (pcDNA3.1); also called huCX3CR1 variant V249I (Rs3732379); printed V2491 in the text
T4 sequence: T1 sequence with V249I
As to the kind of experiment: flow cytometry, AF-647 labelled soluble CX3CL1 on transiently transfected HEK293T cells, human CX3CR1 V249I.

The target in the next assay is T5, human CX3CR1 V249I/T280M (human, UniProt P49238 1-355).
T5 construct: Transiently transfected in HEK293T cells (pcDNA3.1); also called huCX3CR1 variant V249I and T280M
T5 chain: T1 sequence with V249I, T280M
As to the kind of experiment: flow cytometry, AF-647 labelled soluble CX3CL1 on transiently transfected HEK293T cells, human CX3CR1 V249I/T280M.

Data on one molecule can be found in patent US20240117038A1 (Ablynx, published 2024).

Numbering of substitutions follows the chain as printed.

B1: human CX3CL1/Fraktalkine (ligand, UniProt P78423 25-339, looked up)
chain: QHHGVTKCNITCSKMTSKIPVALLIHYQQNQASCGKRAIILETRQHRLFCADPKEQWVKDAMQHLDRQAAALTRNGGTFEKQIGEVKPRTTPAAGGMDESVVLEPEATGESSSLEPTPSSQEAQRALGTSPELPTGVTGSSGTRLPPTPKAQDGGPVGTELFRVPPVSTAATWQSSAPHQPGPSLWAEAKTSEAPSTQDPSTQASTASSPAPEENAPSEGQRVWGQGQSPRPENSLEREEMGPVPAHTDAFQDWGPGSMAHVSVVPVSSEGTPSREPVASGSWTPKAEEPIHATMDPQRLGVLITPVPDAQAATR
modifications: labelled with AF647 (in house) in the binding and competition assays; unlabelled in the chemotaxis and pERK assays
notes: Bought protein; also called huCX3CL1; huCX3CL1-AF647
Turning to B1, the “EC50, ERK phosphorylation in CHO K1 huCX3CR1 cells” value in the assay with human CX3CR1 [1] amounted to 2 nM. The “EC50, ERK phosphorylation in CHO K1 mCX3CR1 cells” value in the assay with mouse CX3CR1 is 2.5 nM. Besides, the EC50 – broadly, the concentration that produces a half-maximal response – in the assay with human CX3CR1 [2] was determined as 3.3 nM; with human CX3CR1 T280M, 19 nM; with human CX3CR1 V249I it was 2.1 nM; with human CX3CR1 V249I/T280M it was 4.2 nM.
